Changes are numbered by the printed parent chain.
B1: P54CR4-31: EGFR-binding FN3 domain, SEQ ID NO: 26 (protein)
chain: LPAPKNLVVSEVTEDSLRLSWTAPDAAFDSFLIQYQESEKVGEAINLTVPGSERSYDLTGLKPGTEYTVSIYGVLGSYVFEHDVMLPLSAEFTT
modifications: EGFR binding FN3 domain
B2: P54CR4-31v2: EGFR-binding FN3 domain, SEQ ID NO: 28; stabilized P54CR4-31 (protein)
chain: B1 chain with L17A, N46V, E91I
modifications: EGFR binding FN3 domain
B3: P54AR4-37v2: EGFR-binding FN3 domain, SEQ ID NO: 29; stabilized P54AR4-37 (protein)
chain: LPAPKNLVVSEVTEDSLRLSWTWPYADLDSFLIQYQESEKVGEAINLTVPGSERSYDLTGLKPGTEYTVSIYGVHNVYKDTNMRGLPLSAEFTT
modifications: EGFR binding FN3 domain
B4: P54AR4-37: EGFR-binding FN3 domain, printed SEQ ID NO: 22 (possibly P54AR4-73) (protein)
chain: B3 chain
modifications: EGFR binding FN3 domain
B5: P54AR4-83: EGFR-binding FN3 domain, SEQ ID NO: 25 (protein)
chain: B3 chain with T22D, W23D, Y25W, D27F, L28Y, D29E
modifications: EGFR binding FN3 domain
B6: ECB94: bispecific SEQ ID NO: 61: P54AR4-83v22, (AP)5, P114AR7P94-A3v22 (protein)
chain: MLPAPKNLVVSEVTEDSARLSWDDPWAFYESFLIQYQESEKVGEAIVLTVPGSERSYDLTGLKPGTEYTVSIYGVHNVYKDTNIRGLPLSAIFTTAPAPAPAPAPLPAPKNLVVSRVTEDSARLSWTAPDAAFDSFWIRYFEFLGSGEAIVLTVPGSERSYDLTGLKPGTEYVVNILGVKGGKISPPLSAIFTT
modifications: bispecific EGFR/cMet binding molecule
B7: ECB95: bispecific SEQ ID NO: 62: P54AR4-83v22, (AP)5, P114AR9P121-A6v2 (protein)
chain: B6 chain with L144V, K183S
modifications: bispecific EGFR/cMet binding molecule
B8: ECB96: bispecific SEQ ID NO: 63: P54AR4-83v22, (AP)5, P114AR9P122-A7v2 (protein)
chain: B6 chain with L144V, G145S, S146K, E148D, K183S
modifications: bispecific EGFR/cMet binding molecule
B9: ECB109: bispecific SEQ ID NO: 68: P54AR4-83v23, (AP)5, P114AR7P95-C5v2 (protein)
chain: B6 chain with W26H, G178S, K183S
modifications: bispecific EGFR/cMet binding molecule
B10: ECB97: bispecific SEQ ID NO: 64: P54AR4-83v22, (AP)5, P114AR7P95-C5v2 (protein)
chain: B6 chain with G178S, K183S
modifications: bispecific EGFR/cMet binding molecule
B11: ECB108: bispecific SEQ ID NO: 67: P54AR4-83v23, (AP)5, P114AR9P122-A7v2 (protein)
chain: B6 chain with W26H, L144V, G145S, S146K, E148D, K183S
modifications: bispecific EGFR/cMet binding molecule
B12: ECB107: bispecific SEQ ID NO: 66: P54AR4-83v23, (AP)5, P114AR9P121-A6v2 (protein)
chain: B6 chain with W26H, L144V, K183S
modifications: bispecific EGFR/cMet binding molecule
B13: ECB106: bispecific SEQ ID NO: 65: P54AR4-83v23, (AP)5, P114AR7P94-A3v22 (protein)
chain: B6 chain with W26H
modifications: bispecific EGFR/cMet binding molecule
B14: ECB18: bispecific SEQ ID NO: 118: P54AR4-83v2, (AP)5, P114AR5P74-A5, linked to albumin binding domain (protein)
chain: MLPAPKNLVVSEVTEDSARLSWDDPWAFYESFLIQYQESEKVGEAIVLTVPGSERSYDLTGLKPGTEYTVSIYGVHNVYKDTNMRGLPLSAIFTTAPAPAPAPAPLPAPKNLVVSRVTEDSARLSWTAPDAAFDSFWIRYDEVVVGGEAIVLTVPGSERSYDLTGLKPGTEYYVNILGVKGGSISVPLSAIFTTAPAPAPAPAPLAEAKVLANRELDKYGVSDYYKNLINNAKTVEGVKALLDEILAALP
modifications: Bispecific EGFR/c-Met binding molecule
B15: ECB28: bispecific SEQ ID NO: 119: P53A1R5-17v2, (AP)5, P114AR5P74-A5, linked to albumin binding domain (protein)
chain: B14 chain with D23A, W26H, A27G, E30D
modifications: Bispecific EGFR/c-Met binding molecule
B16: ECB39: bispecific SEQ ID NO: 121: P53A1R5-17v2, (AP)5, P114AR7P94-A3, linked to albumin binding domain (protein)
chain: MLPAPKNLVVSEVTEDSARLSWADPHGFYDSFLIQYQESEKVGEAIVLTVPGSERSYDLTGLKPGTEYTVSIYGVHNVYKDTNMRGLPLSAIFTTAPAPAPAPAPLPAPKNLVVSRVTEDSARLSWTAPDAAFDSFWIRYFEFLGSGEAIVLTVPGSERSYDLTGLKPGTEYVVNIMGVKGGKISPPLSAIFTTAPAPAPAPAPLAEAKVLANRELDKYGVSDYYKNLINNAKTVEGVKALLDEILAALP
modifications: Bispecific EGFR/c-Met binding molecule
B17: P114AR7P94-A3: c-Met-binding FN3 domain, SEQ ID NO: 41 (protein)
chain: LPAPKNLVVSRVTEDSARLSWTAPDAAFDSFWIRYFEFLGSGEAIVLTVPGSERSYDLTGLKPGTEYVVNIMGVKGGKISPPLSAIFTT
modifications: c-Met binding FN3 domain
B18: P114AR5P74-A5: c-Met-binding FN3 domain, SEQ ID NO: 32 (protein)
chain: B17 chain with F36D, F38V, L39V, G40V, S41G, V68Y, M72L, K78S, P81V
modifications: c-Met binding FN3 domain
B19: P114AR7P95-F10: c-Met-binding FN3 domain, SEQ ID NO: 47 (protein)
chain: B17 chain with L39T, G40T, S41A, K78S
modifications: c-Met binding FN3 domain
B20: P114AR7P92-F6: c-Met-binding FN3 domain, SEQ ID NO: 35 (protein)
chain: B17 chain with M72L, K78G, I79L, P81V
modifications: c-Met binding FN3 domain
B21: P114AR7P95-G7: c-Met-binding FN3 domain, SEQ ID NO: 48 (protein)
chain: B17 chain with F38L, G40S, S41T, K78S
modifications: c-Met binding FN3 domain
B22: P114AR7P95-H8: c-Met-binding FN3 domain, SEQ ID NO: 49 (protein)
chain: B17 chain with L39V, G40S, S41K, K78S
modifications: c-Met binding FN3 domain
B23: P114AR7P94-E5: c-Met-binding FN3 domain, SEQ ID NO: 42 (protein)
chain: B17 chain with V68A, K78R, I79V, P81V
modifications: c-Met binding FN3 domain
B24: P114AR7P95-D4: c-Met-binding FN3 domain, SEQ ID NO: 45 (protein)
chain: B17 chain with N70Q, M72L, K78Y, P81I
modifications: c-Met binding FN3 domain

test system: not listed separately; assay: Differential scanning calorimetry in PBS (thermal stability); type: physicochemical; details: DSC in PBS, EGFR-binding FN3 domains
From the text: A subset of the EGFR binding FN3 domains was engineered to increase the conformational stability of each molecule. […] The new mutants, P54AR5-83v2, P54CR431-v2, and P54AR4-37v2 were expressed and purified as described above. Differential scanning calorimetry in PBS was used to assess the stability of each mutant in order to compare it to that of the corresponding parent molecule.
Differential scanning calorimetry in PBS was used to assess the stability of each FN3 domain.

Row | Molecule | Tm
1 | B1 | 60.9 °C
2 | B2 | 78.9 °C
3 | B3 | 64.2 °C
4 | B4 | 45.9 °C
5 | B5 | 50.6 °C

test system: H292 cells; assay: Inhibition of proliferation of HGF-induced H292 cells; type: cell-based, human; details: bispecific molecules
From the text: Inhibition of tumor cell proliferation can be measured using standard methods and methods described herein.
The proliferation assay was completed using different combinations EGFR and c-Met binding FN3 domains either as a mixture or linked in a bispecific format. […] This confirmed that the avidity effect observed at the level of the receptors (FIG. 4 and FIG. 5) translates into an improvement in inhibiting cell signaling (Table 12) and cell proliferation (Table 13).
Inhibition of human tumor cell growth was assessed in standard attachment culture as described in Examples 3 or 6, or in low attachment conditions.

Row | IC50 | Molecule
6 | 29.6 nM | B6
7 | 383 nM | B7
8 | 9480 nM | B8
9 | 574 nM | B9
10 | 31 nM | B10
11 | 11400 nM | B11
12 | 2640 nM | B12
13 | 484 nM | B13

test system: NCI-H292 cells expressing human HGF; assay: Tumor efficacy study with four bispecific EGFR/c-Met molecules, H292-HGF xenografts; type: in vivo, SCID Beige mice; details: 25 mg/kg three times per week
Protocol: One week after implantation, mice were stratified into groups with equivalent tumor volumes (mean tumor volume=77.9+/−1.7 mm3). Mice were dosed three times per week with the bispecific molecules and tumor volumes were recorded twice weekly.

Row | Molecule | tumor growth (tumor growth inhibition, TGI)
14 | B14 | reduced tumor growth
15 | B15 | reduced tumor growth
16 | B16 | reduced tumor growth

same assay, conditions: 25 mg/kg three times per week; listed as P53A1R5-17v2-P114AR7P94-A3

Row | Molecule | tumor growth (tumor growth inhibition, TGI)
17 | B16 | showed the most efficacy

same assay, conditions: 25 mg/kg three times per week; listed as P54AR4-83v2-P114AR5P74-A5

Row | Molecule | tumor growth (tumor growth inhibition, TGI)
18 | B14 | delay in tumor growth

test system: not listed separately; assay: Differential scanning calorimetry in PBS (thermal stability); type: physicochemical; details: DSC in PBS, c-Met-binding FN3 domains

Row | Molecule | Thermal Stability (Tm)
19 | B17 | 86.2 C
20 | B18 | 74.1 C
21 | B19 | 85.2 C
22 | B20 | 76.8 C
23 | B21 | 87.2 C
24 | B22 | 83 C
25 | B23 | 80 C
26 | B24 | 85.3 C
